Data as given in publication PMC6368601.

Biological target: taxol-stabilized microtubules polymerized from bovine brain tubulin dimers (bovine) (UniProt Q6B856)
Assay: co-sedimentation; 100 nM ISB (WT, MTBM or Δ20) with various concentrations of taxol-stabilized microtubules; BRB80, 1 mM DTT, 50 mM NaCl, 20 uM paclitaxel; 15 min at room temperature; 50% glycerol cushion, 279,000 x g; blot with anti-Borealin; apparent Kd from a one-site specific binding fit of three experiments

Substance: ISB^MTBM: INCENP^1-58-Survivin-Borealin(R17E, R19E, K20E) complex (from UniProt Q9NQS7 1-58; O15392 1-142; Q53HL2 1-280)
- Kd: 4.2 µM
